# Read-outs that look alike come from different tables or passages of the source.
# What was measured:
# [1] = target: His-tagged eukaryotic translation initiation factor 1 (His–eIF1), labelled with NT650 (UniProt P32911); assay: temperature-related intensity change assay
# [2] = target: His-tagged eukaryotic translation initiation factor 1 (His–eIF1), labelled with NT650 (UniProt P32911); assay: temperature-related intensity change assay; remark: listed apart in the source
# Sequence of UniProt P32911 (P32911 whole entry): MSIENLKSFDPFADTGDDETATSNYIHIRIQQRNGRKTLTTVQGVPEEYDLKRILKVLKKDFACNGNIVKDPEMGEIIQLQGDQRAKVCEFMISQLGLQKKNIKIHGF
Substance,Kd [1],Kd [2]
hypo-2′-O-methylated 40S ribosomal subunit from bcd1-D72A yeast cells (from UniProt P05750 1-240) (complex),63 nM,64 nM
40S ribosomal subunit from wild-type control (BY4741 / BCD1) yeast cells (from UniProt P05750 1-240) (complex),,23 nM

# Reference: paper PMC8944910
